Reference: article doi:10.1101/070185 (bioRxiv, 2016)
Numbering of substitutions follows the chain as printed. Names may count otherwise.

How the values were obtained:
[1] = target: the molecule itself; assay: cross-linking
[2] = target: T1, ETS1Δ335 R394A/Y395A (UniProt P14921 335-441, R394A;Y395A); assay: EMSA
T1 sequence: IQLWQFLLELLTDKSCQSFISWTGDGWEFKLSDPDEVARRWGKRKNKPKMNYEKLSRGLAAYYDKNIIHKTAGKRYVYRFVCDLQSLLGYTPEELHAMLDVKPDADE

[3] = target: T2, ETS1Δ335 (UniProt P14921 335-441); assay: EMSA
T2 sequence: T1 sequence with A60R, A61Y

[4] = target: T3, ETS1Δ335 L337A (UniProt P14921 335-441, L337A); assay: EMSA
T3 sequence: T1 sequence with L3A, A60R, A61Y

B1: ETS1Δ335 R378C (domain or fragment, UniProt P14921 335-441, looked up)
chain: T1 sequence with R44C, A60R, A61Y
In the case of B1, the “stoichiometry N” value [1] is reported as 2.

B2: ETS1Δ335 R378C/R394A/Y395A (domain or fragment, UniProt P14921 335-441, looked up)
chain: T1 sequence with R44C
With B2 the “stoichiometry N” value [1] was 2.

B3: ETS1Δ335 L337A R378C (domain or fragment, UniProt P14921 335-441, looked up)
chain: T1 sequence with L3A, R44C, A60R, A61Y
For B3, the “stoichiometry N” value [1] was 2.

B4: MMP3 WT (dsDNA)
DNA 1: ACAGGAAGCACTTCCTGG
DNA 2: CCAGGAAGTGCTTCCTGT
For B4, the Kd [2] was 16.1 ± 1.3 nM, the Kd [3] was 1.2 ± 0.2 nM and the binding result [4] was “no binding”.

B5: MMP3 M1 (dsDNA)
DNA 1: ACAAAAAGCACTTCCTGG
DNA 2: CCAGGAAGTGCTTTTTGT
B5 showed a Kd [2] of 105 ± 5.2 nM and a Kd [3] of 13.5 ± 1.9 nM.

B6: MMP3 M2 (dsDNA)
DNA 1: ACAGGAAGCACTTTTTGG
DNA 2: CCAAAAAGTGCTTCCTGT
B6 was tested, and the Kd [2] was 7.33 ± 0.55 nM and the Kd [3] was 6.37 ± 0.92 nM.

B7: p53 (dsDNA)
DNA 1: TTAGGAAGGCTTTCCGTA
DNA 2: TACGGAAAGCCTTCCTAA
B7: no binding [2]; no binding [3].
